First the molecules themselves.
B1: GpH7-A5/GpH7-B3 variant A330_14T/GpL16-k0 (He Ab) (antibody, human IgG1, kappa)
heavy 1: not shown
heavy 2: not shown
light: DIVMTQSPLSLPVTPGEPASISCQASESLVHSNRNTYLHWYLQKPGQSPQLLIYKVSNRFSGVPDRFSGSGSGTDFTLKISRVEAEDVGVYYCSQNTHVPPTFGQGTKVEIERTVAAPSVFIFPPSDEQLKSGTASVVCLLNNFYPREAKVQWKVDNALQSGNSQESVTEQDSKDSTYSLSSTLTLSKADYEKHKVYACEVTHQGLSSPVTKSFNRGEC
notes: He Ab: alteration only in the GpH7-B3 chain
B2: GpH7-A5/GpH7-B3 variant I336_02A/GpL16-k0 (He Ab) (antibody, human IgG1, kappa)
heavy 1: not shown
heavy 2: not shown
light: DIVMTQSPLSLPVTPGEPASISCQASESLVHSNRNTYLHWYLQKPGQSPQLLIYKVSNRFSGVPDRFSGSGSGTDFTLKISRVEAEDVGVYYCSQNTHVPPTFGQGTKVEIERTVAAPSVFIFPPSDEQLKSGTASVVCLLNNFYPREAKVQWKVDNALQSGNSQESVTEQDSKDSTYSLSSTLTLSKADYEKHKVYACEVTHQGLSSPVTKSFNRGEC
notes: as for B1
B3: GpH7-A5/GpH7-B3 variant G236_20W/GpL16-k0 (He Ab) (antibody, human IgG1, kappa)
heavy 1: not shown
heavy 2: not shown
light: DIVMTQSPLSLPVTPGEPASISCQASESLVHSNRNTYLHWYLQKPGQSPQLLIYKVSNRFSGVPDRFSGSGSGTDFTLKISRVEAEDVGVYYCSQNTHVPPTFGQGTKVEIERTVAAPSVFIFPPSDEQLKSGTASVVCLLNNFYPREAKVQWKVDNALQSGNSQESVTEQDSKDSTYSLSSTLTLSKADYEKHKVYACEVTHQGLSSPVTKSFNRGEC
notes: He Ab: alteration only in the GpH7-B3 chain; also called GpH7-A5/GpH7-B3-03-20W/GpL16-k0
B4: GpH7-A5/GpH7-B3 variant I336_04F/GpL16-k0 (He Ab) (antibody, human IgG1, kappa)
heavy 1: not shown
heavy 2: not shown
light: DIVMTQSPLSLPVTPGEPASISCQASESLVHSNRNTYLHWYLQKPGQSPQLLIYKVSNRFSGVPDRFSGSGSGTDFTLKISRVEAEDVGVYYCSQNTHVPPTFGQGTKVEIERTVAAPSVFIFPPSDEQLKSGTASVVCLLNNFYPREAKVQWKVDNALQSGNSQESVTEQDSKDSTYSLSSTLTLSKADYEKHKVYACEVTHQGLSSPVTKSFNRGEC
notes: as for B1
B5: GpH7-A5/GpH7-B3 variant E333_13S/GpL16-k0 (He Ab) (antibody, human IgG1, kappa)
heavy 1: not shown
heavy 2: not shown
light: DIVMTQSPLSLPVTPGEPASISCQASESLVHSNRNTYLHWYLQKPGQSPQLLIYKVSNRFSGVPDRFSGSGSGTDFTLKISRVEAEDVGVYYCSQNTHVPPTFGQGTKVEIERTVAAPSVFIFPPSDEQLKSGTASVVCLLNNFYPREAKVQWKVDNALQSGNSQESVTEQDSKDSTYSLSSTLTLSKADYEKHKVYACEVTHQGLSSPVTKSFNRGEC
notes: as for B1
B6: GpH7-A5/GpH7-B3 variant I336_06M/GpL16-k0 (He Ab) (antibody, human IgG1, kappa)
heavy 1: not shown
heavy 2: not shown
light: DIVMTQSPLSLPVTPGEPASISCQASESLVHSNRNTYLHWYLQKPGQSPQLLIYKVSNRFSGVPDRFSGSGSGTDFTLKISRVEAEDVGVYYCSQNTHVPPTFGQGTKVEIERTVAAPSVFIFPPSDEQLKSGTASVVCLLNNFYPREAKVQWKVDNALQSGNSQESVTEQDSKDSTYSLSSTLTLSKADYEKHKVYACEVTHQGLSSPVTKSFNRGEC
notes: as for B1
B7: GpH7-A5/GpH7-B3 variant K326_14T/GpL16-k0 (He Ab) (antibody, human IgG1, kappa)
heavy 1: not shown
heavy 2: not shown
light: DIVMTQSPLSLPVTPGEPASISCQASESLVHSNRNTYLHWYLQKPGQSPQLLIYKVSNRFSGVPDRFSGSGSGTDFTLKISRVEAEDVGVYYCSQNTHVPPTFGQGTKVEIERTVAAPSVFIFPPSDEQLKSGTASVVCLLNNFYPREAKVQWKVDNALQSGNSQESVTEQDSKDSTYSLSSTLTLSKADYEKHKVYACEVTHQGLSSPVTKSFNRGEC
notes: as for B1
B8: GpH7-A5/GpH7-B3 variant I336_10E/GpL16-k0 (He Ab) (antibody, human IgG1, kappa)
heavy 1: not shown
heavy 2: not shown
light: DIVMTQSPLSLPVTPGEPASISCQASESLVHSNRNTYLHWYLQKPGQSPQLLIYKVSNRFSGVPDRFSGSGSGTDFTLKISRVEAEDVGVYYCSQNTHVPPTFGQGTKVEIERTVAAPSVFIFPPSDEQLKSGTASVVCLLNNFYPREAKVQWKVDNALQSGNSQESVTEQDSKDSTYSLSSTLTLSKADYEKHKVYACEVTHQGLSSPVTKSFNRGEC
notes: as for B1
B9: GpH7-A5/GpH7-B3 variant I336_01G/GpL16-k0 (He Ab) (antibody, human IgG1, kappa)
heavy 1: not shown
heavy 2: not shown
light: DIVMTQSPLSLPVTPGEPASISCQASESLVHSNRNTYLHWYLQKPGQSPQLLIYKVSNRFSGVPDRFSGSGSGTDFTLKISRVEAEDVGVYYCSQNTHVPPTFGQGTKVEIERTVAAPSVFIFPPSDEQLKSGTASVVCLLNNFYPREAKVQWKVDNALQSGNSQESVTEQDSKDSTYSLSSTLTLSKADYEKHKVYACEVTHQGLSSPVTKSFNRGEC
notes: as for B1
B10: GpH7-A5/GpH7-B3 variant E269_15Y/GpL16-k0 (He Ab) (antibody, human IgG1, kappa)
heavy 1: not shown
heavy 2: not shown
light: DIVMTQSPLSLPVTPGEPASISCQASESLVHSNRNTYLHWYLQKPGQSPQLLIYKVSNRFSGVPDRFSGSGSGTDFTLKISRVEAEDVGVYYCSQNTHVPPTFGQGTKVEIERTVAAPSVFIFPPSDEQLKSGTASVVCLLNNFYPREAKVQWKVDNALQSGNSQESVTEQDSKDSTYSLSSTLTLSKADYEKHKVYACEVTHQGLSSPVTKSFNRGEC
notes: as for B1
B11: GpH7-A5/GpH7-B3 variant E269_08L/GpL16-k0 (He Ab) (antibody, human IgG1, kappa)
heavy 1: not shown
heavy 2: not shown
light: DIVMTQSPLSLPVTPGEPASISCQASESLVHSNRNTYLHWYLQKPGQSPQLLIYKVSNRFSGVPDRFSGSGSGTDFTLKISRVEAEDVGVYYCSQNTHVPPTFGQGTKVEIERTVAAPSVFIFPPSDEQLKSGTASVVCLLNNFYPREAKVQWKVDNALQSGNSQESVTEQDSKDSTYSLSSTLTLSKADYEKHKVYACEVTHQGLSSPVTKSFNRGEC
notes: as for B1
B12: GpH7-A5/GpH7-B3 variant E269_04F/GpL16-k0 (He Ab) (antibody, human IgG1, kappa)
heavy 1: not shown
heavy 2: not shown
light: DIVMTQSPLSLPVTPGEPASISCQASESLVHSNRNTYLHWYLQKPGQSPQLLIYKVSNRFSGVPDRFSGSGSGTDFTLKISRVEAEDVGVYYCSQNTHVPPTFGQGTKVEIERTVAAPSVFIFPPSDEQLKSGTASVVCLLNNFYPREAKVQWKVDNALQSGNSQESVTEQDSKDSTYSLSSTLTLSKADYEKHKVYACEVTHQGLSSPVTKSFNRGEC
notes: as for B1
B13: GpH7-A5/GpH7-B3 variant E333_01G/GpL16-k0 (He Ab) (antibody, human IgG1, kappa)
heavy 1: not shown
heavy 2: not shown
light: DIVMTQSPLSLPVTPGEPASISCQASESLVHSNRNTYLHWYLQKPGQSPQLLIYKVSNRFSGVPDRFSGSGSGTDFTLKISRVEAEDVGVYYCSQNTHVPPTFGQGTKVEIERTVAAPSVFIFPPSDEQLKSGTASVVCLLNNFYPREAKVQWKVDNALQSGNSQESVTEQDSKDSTYSLSSTLTLSKADYEKHKVYACEVTHQGLSSPVTKSFNRGEC
notes: as for B1
B14: GpH7-A5/GpH7-B3 variant E269_06M/GpL16-k0 (He Ab) (antibody, human IgG1, kappa)
heavy 1: not shown
heavy 2: not shown
light: DIVMTQSPLSLPVTPGEPASISCQASESLVHSNRNTYLHWYLQKPGQSPQLLIYKVSNRFSGVPDRFSGSGSGTDFTLKISRVEAEDVGVYYCSQNTHVPPTFGQGTKVEIERTVAAPSVFIFPPSDEQLKSGTASVVCLLNNFYPREAKVQWKVDNALQSGNSQESVTEQDSKDSTYSLSSTLTLSKADYEKHKVYACEVTHQGLSSPVTKSFNRGEC
notes: as for B1
B15: GpH7-A5/GpH7-B3 variant I336_18N/GpL16-k0 (He Ab) (antibody, human IgG1, kappa)
heavy 1: not shown
heavy 2: not shown
light: DIVMTQSPLSLPVTPGEPASISCQASESLVHSNRNTYLHWYLQKPGQSPQLLIYKVSNRFSGVPDRFSGSGSGTDFTLKISRVEAEDVGVYYCSQNTHVPPTFGQGTKVEIERTVAAPSVFIFPPSDEQLKSGTASVVCLLNNFYPREAKVQWKVDNALQSGNSQESVTEQDSKDSTYSLSSTLTLSKADYEKHKVYACEVTHQGLSSPVTKSFNRGEC
notes: as for B1
B16: GpH7-A5/GpH7-B3 variant I336_03V/GpL16-k0 (He Ab) (antibody, human IgG1, kappa)
heavy 1: not shown
heavy 2: not shown
light: DIVMTQSPLSLPVTPGEPASISCQASESLVHSNRNTYLHWYLQKPGQSPQLLIYKVSNRFSGVPDRFSGSGSGTDFTLKISRVEAEDVGVYYCSQNTHVPPTFGQGTKVEIERTVAAPSVFIFPPSDEQLKSGTASVVCLLNNFYPREAKVQWKVDNALQSGNSQESVTEQDSKDSTYSLSSTLTLSKADYEKHKVYACEVTHQGLSSPVTKSFNRGEC
notes: as for B1

T1 sequence (P12314 16-292): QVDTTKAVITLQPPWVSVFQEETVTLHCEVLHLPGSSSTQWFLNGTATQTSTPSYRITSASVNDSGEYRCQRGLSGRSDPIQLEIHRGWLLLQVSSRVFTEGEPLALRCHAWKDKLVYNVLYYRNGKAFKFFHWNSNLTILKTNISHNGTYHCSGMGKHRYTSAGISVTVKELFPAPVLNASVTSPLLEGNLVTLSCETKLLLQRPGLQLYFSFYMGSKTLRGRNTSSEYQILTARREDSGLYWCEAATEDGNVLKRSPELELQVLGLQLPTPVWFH

This experiment has as its target T1, FcγRIa extracellular domain with C-terminal His tag (human, UniProt P12314 16-292).
T1 construct: extracellular domain; Expressed in FreeStyle293 cells; analyte in Biacore; also called FcgRI; FcgRIa
Put plainly: SPR Biacore, antibody captured, FcγRIa analyte; vs GpH7-A5/GpH7-B3/GpL16-k0 = 100. A general note: SPR reads the build-up and loss of mass on a sensor chip optically.
For the molecule B1, the He/Con_1a was 105 relative (control = 100). For B2 the value was 106 relative (control = 100); for B3, 105 relative (control = 100); for B4, 106 relative (control = 100). As for B5, the He/Con_1a was 103 relative (control = 100). For B6 the value was 108 relative (control = 100); for B7, 104 relative (control = 100). For B8 the value was 108 relative (control = 100); for B9, 109 relative (control = 100). For B10 the value was 106 relative (control = 100); for B11, 104 relative (control = 100); for B12, 103 relative (control = 100). Take B13: the He/Con_1a was 103 relative (control = 100). Regarding B14, the He/Con_1a is 104 relative (control = 100).

In the case of B15, the He/Con_1a is 108 relative (control = 100).

In the case of B16, the He/Con_1a was 105 relative (control = 100).

The values are drawn from US20180155451A1 (published 2018).
